Legend:
[1] = target: T1, SAP2:CFP (A. thaliana, UniProt Q8H0X0 1-173); test: FRET or BRET
T1 sequence (looked up): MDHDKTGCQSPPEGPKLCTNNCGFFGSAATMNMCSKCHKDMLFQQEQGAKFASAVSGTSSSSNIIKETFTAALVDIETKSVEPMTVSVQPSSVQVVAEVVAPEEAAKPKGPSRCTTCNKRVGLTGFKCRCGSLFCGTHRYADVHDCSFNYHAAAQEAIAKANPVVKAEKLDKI

[2] = target: T2, SAP3:CFP (A. thaliana, UniProt Q9ZNU9 1-163); test: FRET or BRET
T2 sequence (looked up): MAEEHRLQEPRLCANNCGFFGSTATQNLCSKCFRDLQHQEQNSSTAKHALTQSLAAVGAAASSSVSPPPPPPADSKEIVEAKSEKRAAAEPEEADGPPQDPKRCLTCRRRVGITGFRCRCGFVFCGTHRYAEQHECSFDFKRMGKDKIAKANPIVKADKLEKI

- FRET efficiency, fold of negative control [1]: > 5 fold of negative control
- FRET efficiency, fold of negative control [2]: > 5 fold of negative control
B1: CML49:YFP (natural protein, A. thaliana, UniProt Q8W4L0 1-335, looked up)
chain: MSGYPPSSQGYGYGGNPPPPQPPYGSTGNNPPPYGSSGSNPPPPYGSSASSPYAVPYGAQPAPYGAPPSAPYASLPGDHNKPHKEKPHGASYGSPSPGGYGAHPSSGPSDYGGYGGAPQQSGHGGGYGGAPQQSGHGGGYGAPPPQASYGSPFASLVPSAFPPGTDPNIVACFQAADRDNSGFIDDKELQGALSSYNQSFSIRTVHLLMYLFTNSNVRKIGPKEFTSLFFSLQNWRSIFERFDKDRSGRIDTNELRDALMSLGFSVSPVILDLLVSKFDKSGGRNRAIEYDNFIECCLTVKGLTEKFKEKDTALSGSAIFNYENFMLTVLPFLVA

— paper doi:10.1101/2021.02.18.431817 (bioRxiv, 2021)
